# Assay results published in the RNAGym collection of RNA variant scans (doi:10.1073/pnas.2313332121).
# For some assays here: This sample holds only a part of the variants without activity.
# B1: TPR t1 (parent)
# chain: GACCAAUCUGCCCUCAGAGCUCGAGAACAUCUUCGGAUGCAGAGGAGGCAGGCUUCGGUGGCGCGAUAGCGCCAACGUCCUCAACCUCCAAUGCAUCCCACCACAUGAUGAUGCCUGAAGAGCCUUGGUUUUUUG
# B2: TPR 5TU (parent)
# chain: GGAUCUUCUCGAUCUAACAAAAAAGACAAAUCUGCCACAAAGCUUGAGAGCAUCUUCGGAUGCAGAGGCGGCAGCCUUCGGUGGCGCGAUAGCGCCAACGUUCUCAACUAUGACACGCAAAACGCGUGCUCCGUUGAAUGGAGUUUAUCAUG
# Variants of: B1
# Test: polymerase ribozyme fitness, log enrichment relative to wild type (log ratio); higher = more active; in vitro selection for triplet polymerase activity
# Procedure, shortened: (§1)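 PCR was used to build mutant libraries for each subunit of a heterodimeric triplet polymerase ribozyme, which were then transcribed. A single in vitro selection round, in triplicate, used a frozen incubation at −7 °C and recovered extended constructs by gel excision, streptavidin beads and RT-PCR. Fitness is the logarithm of genotype enrichment relative to wild-type enrichment, averaged over replicates with inverse-variance weights. The logarithm is base 2, and after Illumina sequencing only genotypes with ≥10 input reads and ≥1 read per output were kept.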
row,Variant,polymerase ribozyme fitness (log ratio)
1,G117A U129A,-3.39
2,G117A U129C,-2.05
3,U131G U133A,-0.289
4,U116G U129G,-4.36
5,U116G U130C,-2.14
6,G122A U126A,-2.34
7,U132G U133A,0.0135
8,A119C C123G,-1.25
9,G120A A121C,-0.98
10,G117C G120A,-3.91
11,A121C U131G,1.12
12,G117A C123G,-1.9
13,G120C G127A U134C,-2.55
14,G120C G128U,-0.74
15,A121C,1.74
16,A121U,2.12
17,A121G,1.88
18,G120A U132A,1.97
19,A119G U131A,0.889
20,C124U U133G,0.97
21,G117A C124U,-0.187
22,U129A U130C,-0.653
23,G120A U125A,1.26
24,C123U U134C,1.29
25,G120C G122A,-0.824
26,G117C U133G,-3.89
27,G117C U133A,-4.07

# Variants of: B2
# Test: as above
# Procedure, shortened: as §1
row,Variant,polymerase ribozyme fitness (log ratio)
1,A3U A29C G68C A73G,≤ -4.2
2,A3C C85A,-2.55
3,A3G C96A A98U U102C,-2.26
4,A3C A29C A37U C57U C87U A142G U148C,≤ -4.2
5,A3G A21C A37C C63U G74C C87G G128C G141A,≤ -4.2
6,A3U A37C G84U,-2.36
7,A3C U56A C69U A91U,≤ -4.2
8,A3G C96U,-0.935
9,A3G A19G A28U C99U U130G,≤ -4.2
10,A3U C54U U56A C95U C123U A150C G152U,-3.58
11,A3C A19U C57G G94A G141A,-2.02
12,A3U A89C C95A A110C,≤ -4.2
13,A3U A16C U45A C75A U82G G84A C118U,≤ -4.2
14,A3C U31G C57G,-1.39
15,A3U A37G G59U G86A C99A U130C G141U,≤ -4.2
16,A3G U6C A64U G70C G86A U90G C93U G133C C149U,≤ -4.2
17,A3G A22C,-0.593
18,A3C U13C C51U C57U C87U C96G U139C,≤ -4.2
19,A3G G94U U104C C129U U134A,≤ -4.2
20,A3C A20G C85A,-2.54
21,A3G C72U C85U U146C,-0.724
22,A3G A19U C27A U82A C93G U111G,≤ -4.2
23,A3G G42A A49C C63U C69G C85G A115C,≤ -4.2
24,A3U C87A,-3.25

row,Variant,polymerase ribozyme fitness (log ratio)
1,A3U C32A U45G G50C U53A A60G G94A A98G G141U,≤ -4.2
2,A3U C5U C87U C96G C131A,≤ -4.2
3,A3C C5G C14G A24G A29U C32A U56G G86C U90G C116G A142C,≤ -4.2
4,A3C A23U G50C U55A C105U C116U C125U,≤ -4.2
5,A3G C8G A28G G46U G50A G67C G92C A107U U151G,≤ -4.2
6,A3U C57A G71A A91G,≤ -4.2
7,A3U A41C C95U C99G C118A G136A U144G,-3.81
8,A3G C18G G83C U144C,-2.47
9,A3U C10U G25C A52G G88C A97U G100C U144G,≤ -4.2
10,A3U C32U G59A G83C C129U A137C,≤ -4.2
11,A3U A52C C75U G92U C103G U134G,≤ -4.2
12,A3G C51G A52C G84U U101G A107G,≤ -4.2
13,A3G G11C G34C A41G C87A,-4.04
14,A3G A22G A24C A49U C76A C131G,≤ -4.2
15,A3U C5U C35G A37G G86U A89G U104C C125G C131G,≤ -4.2
16,A3U A16U C38U G65C G88A,≤ -4.2
17,A3C A37G A91C A138C G140U,≤ -4.2
18,A3U A30C C36A A60U G84A C85A G140C U146C,≤ -4.2
19,A3G A17U G34A C118G U146A C149A,≤ -4.2
20,A3U A17C C35U G59A C85A,-3.22
21,A3G A19U G92U A113C,-3.43
22,A3G A12G A52G G84A C116G,-1.71
23,A3U C5A A19U G50A C57U,-3.13
24,A3C U9A A73U U144A C149G,≤ -4.2

row,Variant,polymerase ribozyme fitness (log ratio)
1,A3U C18G A22G G94C C131U,≤ -4.2
2,A3G U55A C93A,-3.2
3,A3G A16U C18U A22C G25C C43U A49C G68C A106C U145C,≤ -4.2
4,A3U C85U,-0.254
5,A3G C51G U56A G92U C118U U145C,≤ -4.2
6,A3C A19G A21U U45A U82C G92C U139G U144A,≤ -4.2
7,A3U C85G C125A U144A,-3.46
8,A3C A16U A26U U55A,≤ -4.2
9,A3G A37C G80U,-3.88
10,A3U A16U C93U U102C,-4.1
11,A3G C57A U90A A91C C93U G94C C132U G140U A142U,≤ -4.2
12,A3G G11A C14A C95G C96A C103G,≤ -4.2
13,A3U C27G C95U A150G,≤ -4.2
14,A3C A37U A40C U44A C132A,≤ -4.2
15,A3G A39U G83U G84U C114U A119G,≤ -4.2
16,A3C U31G U53A U55A C96A A115G G126A A142C,≤ -4.2
17,A3U A20C C54U G86C C125U,-4.19
18,A3C G34C C43U A91G,≤ -4.2
19,A3U A24U A52U A60G G92U,-2.23
20,A3U A21G C76G G86U A121U,≤ -4.2
21,A3G A39C,-3.26
22,A3G A20G,-0.654
23,A3C U33C U44A U56G C85G,≤ -4.2
24,A3G C5G U7A G50U G86A C93U C96U,-0.354

row,Variant,polymerase ribozyme fitness (log ratio)
1,A3G A16C A22G A73G G84U C123U G141U,≤ -4.2
2,A3C U9G U33G A49U G74U U77G C93G U104A,≤ -4.2
3,A3U C5A C35U C87A,≤ -4.2
4,A3U A30G G86C C96U,-4
5,A3U A20C U31G C36A,≤ -4.2
6,A3C C5G G92U U134C U135A,-1.39
7,A3G C27A G88C A122C A138U,≤ -4.2
8,A3C G11U C36G A39U A91U C114U U127G U134G G140C,≤ -4.2
9,A3U A30U G34U G58A C87G C95U C131G,≤ -4.2
10,A3G U56A C96A U134A,-3.26
11,A3G G94A C114U,-2.39
12,A3G G50A,-1.39
13,A3G U53A C54U C95U,-1.48
14,A3U A73G C79G C93A C116U G117U A138U,≤ -4.2
15,A3C C93G,≤ -4.2
16,A3G A26C A60G,-2.26
17,A3G G83U,-0.444
18,A3U C72U C79G G92U,≤ -4.2
19,A3U A30G A49C,≤ -4.2
20,A3G A23C A26G U45A A52G G59A G80C A106C,≤ -4.2
21,A3U A30G A52U C79G G88U C95U A115G A120C G133U,-4.13
22,A3C A29U A91U,≤ -4.2
23,A3C G83A G136C,-3.35
24,A3U A26U G42C G58U C87A C125U C131G C132G,≤ -4.2

row,Variant,polymerase ribozyme fitness (log ratio)
1,A3U C18G A21U C57U C85U G94A A121U,-1.04
2,A3C C5A A20U C57A G62C U78G,≤ -4.2
3,A3C U13C A28G C79G G80C G94A G141C,-4.17
4,A3U A39G G58C C96U,-3.39
5,A3G C8G C35A U90G C95U C116G G152A,-4.12
6,A3C C10A U82C,-2.75
7,A3C U6G A60G G83C,-3.62
8,A3U C57U C85A C118U C125A,-2.55
9,A3U A28U C57U C75G,≤ -4.2
10,A3G U6A A40G C87A,≤ -4.2
11,A3U C76A,-1.8
12,A3U C35U U77C G84C A89G C118U,≤ -4.2
13,A3U A12G U13G A19C G143U,-2.98
14,A3C A22U G86A G92U,-2.91
15,A3U C10U U15C,-1.19
16,A3U A147C,-0.51
17,A3G G42C C69G C85G C118U C129U,≤ -4.2
18,A3C C8U C27U G68A C87U A91C C93G,≤ -4.2
19,A3U A41G C85U G126U U144A,-1.79
20,A3C U15A C85U,0.611
21,A3U C5G A21U A30G C93A U148A,≤ -4.2
22,A3C C14G C103G A119G,≤ -4.2
23,A3U A47C,-0.9
24,A3G C35U C96A A106C A138C A142G,≤ -4.2

row,Variant,polymerase ribozyme fitness (log ratio)
1,A3G U13G A23C C43A C87U,≤ -4.2
2,A3C U45A G59U G92U,≤ -4.2
3,A3U C27U A49C G88C C96A C125G A142C,≤ -4.2
4,A3C C5A G11A U45A U55A G80A C96A,≤ -4.2
5,A3U C5G A29U U31C A41C U55A U56C G84A C87U U111G U135A,≤ -4.2
6,A3U A16G C36A G92C G124C C131A G136U,≤ -4.2
7,A3U A37U G42C C57U C95A A120G,≤ -4.2
8,A3U C27U G81A C96A,-3.11
9,A3G U9G C51U G67C G81C A89G A97G,≤ -4.2
10,A3U C93U G141A U146G,-2.5
11,A3G C54A C95U,-2.06
12,A3C G11C C76U C93A,-3.68
13,A3G C57A C87A,≤ -4.2
14,A3C C18G A30G C116G,≤ -4.2
15,A3G C85A,-1.17
16,A3U C8G C51A A89G U90G A120U G133C,≤ -4.2
17,A3G U6A U33G G50A C79U C129A,≤ -4.2
18,A3C,-0.142
19,A3U,-0.0169
20,A3G,-0.234
